# From patent US12492373B2, “Production method for nerve tissue” (Racthera Co., Ltd., priority 2014, dated 2025)
# What was measured:
# [1] = test system: human iPS cells (Ff-I01 strain); test: Immunostaining of aggregate sections for retinal tissue marker Chx10; assay type: cell-based
# Excerpt: (§1) Cell aggregates on day 16 after the start of suspension culturing were fixed with 4% para-formaldehyde to prepare frozen sections. These frozen sections were immunostained for Chx10 (anti-Chx10 antibody, Exalpha, sheep), which is one of the retinal tissue markers. These immunostained sections were observed under a fluorescence microscope.
# Cell aggregates on day 16 after the start of suspension culturing were fixed with 4% para-formaldehyde to prepare frozen sections. These frozen sections were immunostained for Chx10 (anti-Chx10 antibody, Exalpha, sheep), which is one of the retinal tissue markers, and observed under a fluorescence microscope. […] In addition, the proportion of Chx10-positive cells in the total cells is about 80% under conditions with the addition of BMP4 twice to maintain the final concentration of 5 nM (FIG. 23, D)
# The cell aggregates on day 19 after the start of suspension culturing were fixed with 4% para-formaldehyde to prepare frozen sections. These frozen sections were immunostained for Chx10 (anti-Chx10 antibody, Exalpha, sheep), which is one of the retinal tissue markers. These immunostained sections were observed under an inverted fluorescence microscope. As a result, the proportion of Chx10-positive cells in the total cells is about 70% under conditions with the addition of BMP4 twice to maintain the final concentration of 1.5 nM ([…]). In addition, the proportion of Chx10-positive cells in the total cells is about 90% under conditions with the addition of BMP4 twice to maintain the final concentration of 5 nM (FIG. 34, D).
# as §1, with “The thus-prepared cell” for “Cell”, “19” for “16”, “markers, and” for “markers. These immunostained sections were”
# [2] = test system: human iPS cells (Ff-I01 strain); test: Neural tissue / neuroepithelium formation in cell aggregates, bright field observation; assay type: cell-based
# Method: At the time of the start of suspension culturing (day 0 after the start of suspension culturing, […]), Y27632 ([…]) were added to the above serum-free medium (FIG. 22). By day 2 after the start of suspension culturing, a cell aggregate was formed (step 2 completed, step 3 start) under any conditions. On day 3 or later from the start of suspension culturing, BMP4 was added under 3 conditions including the following conditions 1-3. • Condition 1: (+BMP4 addition once) On day 3 of suspension culturing, a medium (50 μl) free of Y27632 and SAG, and containing human recombinant BMP4 (manufactured by R&D) was added such that the final concentration of exogenous human recombinant BMP4 was 1.5 nM (55 ng/ml). On day 6 or later from the start of suspension culturing, a half amount of the medium was changed to a serum-free medium free of Y27632, SAG and human recombinant BMP4. • Condition 2: (+BMP4 addition twice) On day 3 of suspension culturing, a medium (50 μl) free of Y27632, SAG and containing human recombinant BMP4 (manufactured by R&D) was added such that the final concentration of exogenous human recombinant BMP4 was 1.5 nM (55 ng/ml). On day 6 from the start of suspension culturing, 50 μl of the medium was discarded, and 50 μl of a medium free of Y27632 and SAG and containing human recombinant BMP4 (manufactured by R&D) was added to maintain the final concentration of exogenous human recombinant BMP4 at 1.5 nM (55 ng/ml). On day 9 or later from the start of suspension culturing, a half amount of the medium was changed with a serum-free medium free of Y27632, SAG, and human recombinant BMP4. • Condition 3: (+BMP4 addition three times) On day 3 of suspension culturing, a medium (50 μl) free of Y27632, SAG and containing human recombinant BMP4 (manufactured by R&D) was added such that the final concentration of exogenous human recombinant BMP4 was 1.5 nM (55 ng/ml). On days 6 and 9 from the start of suspension culturing, 50 μl of the medium was discarded, and 50 μl of a medium free of Y27632 and SAG and containing human recombinant BMP4 (manufactured by R&D) was added to maintain the final concentration of exogenous human recombinant BMP4 at 1.5 nM (55 ng/ml). On day 12 or later from the start of suspension culturing, a half amount of the medium was changed with a serum-free medium free of Y27632, SAG and human recombinant BMP4. […]
# On day 3 after the start of suspension culturing, a medium (50 μl) free of Y27632 and SAG, and containing human recombinant BMP4 (manufactured by R&D) was added such that the final concentration of exogenous human recombinant BMP4 was 1.5 nM (55 ng/ml) or 5 nM (183 ng/ml). […]
molecule,measurement,setting,value
"BMP4: human recombinant BMP4 (manufactured by R&D), BMP signal transduction pathway activating substance (protein, UniProt P12644 293-408, looked up) Bone morphogenetic protein 4: SPKHHSQRARKKNKNCRRHSLYVDFSDVGWNDWIVAPPGYQAFYCHGDCPFPLADHLNSTNHAIVQTLVNSVNSSIPKACCVPTELSAISMLYLDEYDKVVLKNYQEMVVEGCGCR",proportion of Chx10-positive cells in the total cells,"[1]; SAG 300 nM 2 days in step 1, SAG 300 nM in step 2, BMP4 1.5 nM added 2 or 3 times, day 16",about 80%
same,proportion of Chx10-positive cells in the total cells,"[1]; SAG 300 nM 2 days in step 1, SAG 300 nM in step 2, BMP4 1.5 nM added once (day 3), day 16",about 60%
same,proportion of Chx10-positive cells in the total cells,"[1]; StemFit AK03, SAG 300 nM 2 days in step 1, SAG 1000 nM in step 2, BMP4 added twice to maintain 1.5 nM, day 16",about 70%
same,proportion of Chx10-positive cells in the total cells,"[1]; StemFit AK03, SAG 300 nM 2 days in step 1, SAG 1000 nM in step 2, BMP4 added twice to maintain 5 nM, day 16",about 80%
same,proportion of Chx10-positive cells in the total cells,"[1]; StemFit AK03N, SAG 300 nM 2 days in step 1, SAG 500 nM in step 2, BMP4 added twice to maintain 1.5 nM, day 19",about 70%
same,proportion of Chx10-positive cells in the total cells,"[1]; StemFit AK03N, SAG 300 nM 2 days in step 1, SAG 500 nM in step 2, BMP4 added twice to maintain 5 nM, day 19",about 90%
same,cell aggregate and neural tissue formation,"[2]; SAG 300 nM 2 days in step 1, SAG 300 nM in step 2, BMP4 1.5 nM added 1, 2 or 3 times in step 3, day 16",a neural tissue could be formed efficiently
same,cell aggregate and neural tissue formation,"[2]; SAG 300 nM 2 days in step 1, SAG 1000 nM in step 2, BMP4 at 1.5 nM and 5 nM in step 3, day 16",a neural tissue could be formed efficiently
same,cell aggregate and neural tissue formation,"[2]; StemFit AK03N, SAG 300 nM 2 days in step 1, SAG 500 nM in step 2, BMP4 at 1.5 nM or 5 nM, day 19",a neural tissue can be formed efficiently
